Common to all, as to assay: MST
Experiment [1] addresses T1, recombinant human FABP4 (fatty acid binding protein 4) (UniProt P15090 2-132).
T1 chain: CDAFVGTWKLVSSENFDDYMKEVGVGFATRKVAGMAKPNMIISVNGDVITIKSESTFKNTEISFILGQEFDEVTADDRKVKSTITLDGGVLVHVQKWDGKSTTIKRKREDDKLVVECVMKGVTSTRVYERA

Experiment [2] concerns the target human ADK (adenosine kinase), recombinant (UniProt P55263 2-362).
Experiment [3] deals with human NDPK-A (nucleoside diphosphate kinase A), full-length recombinant (UniProt P15531 2-152).

Our source for the Kd and EC50 values is patent publication US20230203142A1 (published 2023).

Sequence of human ADK (adenosine kinase), recombinant (P55263 2-362): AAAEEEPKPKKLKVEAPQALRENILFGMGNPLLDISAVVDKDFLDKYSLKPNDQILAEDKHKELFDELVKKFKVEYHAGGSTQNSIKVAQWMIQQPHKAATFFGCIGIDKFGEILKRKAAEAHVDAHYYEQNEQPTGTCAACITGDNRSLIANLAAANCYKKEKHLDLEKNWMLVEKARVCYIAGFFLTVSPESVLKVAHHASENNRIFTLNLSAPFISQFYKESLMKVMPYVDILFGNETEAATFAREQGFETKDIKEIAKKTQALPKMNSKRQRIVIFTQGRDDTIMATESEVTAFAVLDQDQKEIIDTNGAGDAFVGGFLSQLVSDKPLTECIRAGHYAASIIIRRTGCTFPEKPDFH
Sequence of human NDPK-A (nucleoside diphosphate kinase A), full-length recombinant (P15531 other isoform, or with tags, fused parts or gaps): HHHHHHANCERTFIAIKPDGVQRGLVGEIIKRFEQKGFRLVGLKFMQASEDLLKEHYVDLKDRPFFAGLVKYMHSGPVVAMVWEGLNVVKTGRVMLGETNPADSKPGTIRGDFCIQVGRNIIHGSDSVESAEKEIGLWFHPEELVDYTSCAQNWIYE

B1: CA33 (a-Ab) monoclonal antibody (antibody)
heavy: QSVEESGGRLVTPGTPLTLTCTVSGFSLSTYYMSWVRQAPGKGLEWIGIIYPSGSTYCASWAKGRFTISKASTTVDLKITSPTTEDTATYFCARPDNDGTSGYLSGFGLWGQGLVTVSSAKTTPPSVYPLAPGSAAQTNSMVTLGCLVKGYFPEPVTVTWNSGSLSSGVHTFPAVLQSDLYTLSSSVTVPSSTWPSETVTCNVAHPASSTKVDKKIVPRDC
light: DVVMTQTPASVSEPVGGTVTIKCGASEDISRYLVWYQQKPGQPPKRLIYKASTLASGVPSRFKGSGSGTDFTLTISDLECDDAATYYCQCTYGTYAGSFFYSFGGGTEVVVERTDAAPTVSIFPPSSEQLTSGGASVVCFLNNFYPKDINVKWKIDGSERQNGVLNSWTDQDSKDCTYSMSSTLTLTKDEYERHNSYTCEATHKTSTSPIVKSFNRNEC
In the case of B1, the Kd in experiment [1] was 2860 nM. In addition, the EC50 worked out at 1880 nM in experiment [2] and 143 nM in experiment [3].
